In the DeepSol protein solubility set:

Test: soluble on expression in E. coli; label from the status in PepcDB or PDB records

Sequence	soluble on expression in E. coli
MGSDKIHHHHHHMIKVGQTTEVENFLSNHPEVEAIDVLISDLVGFARGKRIEKSSLEKIYSSGLNMPATIFSMNVLGETIEECGLGQDIGEPDMVCKPIANTLHMASWHDRPIAQVLMSMFNHDGTPFFADPRNILSNVVRQLAEINLYPVVAVELEFYLLDKNKDNKGNLQAPISPKTGKRDEHTQVYSVDTLNDYSALLDDINRVCIEQNVPADTAVAECAPGQFEINLKHEADPVAACDNAILLKRIIKTVADKHNFDATFMAKPYSNEAGSGMHVHASLLDECGNNVFADEHNDYNETLEHAIGGMLELMPASMPLLCPNVNSYRRFMPGYYVAMAKNWGVDNRTVALRLPRGHKNATRIEHRVSGADANPYLVMAVILASIHHGITNKIKPINPTVGNAFDDDCEALPLKLDRALAELEKDQILTSYLGEEFTKNYHTVKQKELEQFDMHISELEVKWYLSNS	not soluble
MGSDKIHHHHHHMKRPLQTWLTESWLAFSRLLTFHILERRLFEHSGRIPYEPQPGNLLYVAASVLPYHTSGYTTRTHEVVCALNKAGARVHVLTRPGYPWDRKDRLCDPVSEETTVGDMCYRHAQAPANNRPVLQYALQAARVVAESAVRHRVAVIHAASNHVNALPALLAARQLGIPFQYEMRGLWELTRISRQPGYEDSQAYKQGLQLEGLVARHADRLFVISEQLGKYVQTNWDIDAGRMALLPNCVDPERFLIADPQQIESNTIGYAGSLMGYEGLDTLIDAVDILVRSGSSVRVVIIGDGEARPQLETRVQRLGLSERIYFSGKMPPDAAREKLARCALVCIPRKPFKVCEIVPPIKLVEALAMGKPVIVPDLPVFRDELGDDPAGWFFRSGDAADLAHVIEAALGNEEKLREMSDQARDYVLAKRCWHRFVDKMAKPYDS	not soluble
MSLKFPRKGIPQEEVMRELEKYTSKDLSFSSGKILGSMCTLPHELAKEVFCMYMDRNLGDPGLHPGTKKIEEEVIEMLSDLLHLERGYGHIVSGGTEANILAVRAFRNLADVENPELILPKSAHFSFIKAGEMLGVKLIWADLNPDYTVDVKDVEAKISENTIGIVGIAGTTGLGVVDDIPALSDLARDYGIPLHVDAAFGGFVIPFAKELGYDLPDFDFKLKGVQSITIDPHKMGMAPIPAGGIVFRHKKYLRAISVLAPYLAGGKIWQATITGTRPGASVLAVWALIKHLGFEGYMEIVDRAMKLSRWFAEEIKKTPGAWLVREPMLNIVSFKTKNLRRVERELKSRGWGISAHRGYIRIVSHASCDGGHDEGHHHHHH	soluble
PLQFHSVHGDNIRISRDGTLARRFESFCRAITFSARPVRINERICVKFAEISNNWNGGIRFGFTSNDPVTLEGTLPKYACPDLTNRPGFWAKALHEQYCEKDNILYYYVNGAGDVIYGINNEEKGVILTGIDTRSLLWTVIDIYGNCTGIEFLDSRIYMYQ	soluble
MGSDKIHHHHHHMALSERLSRFLARKGITYQPLETEPVANLDAAVLASGKPQHDFIKATLLIDINGVVMVVHRFDSTLDMDAVHQFTGRRLQPLTARQTSRLFGDCDAGFVPPIGAAWELPVLVDEDVVTAESVIFSGGTDHSLVEMDGRAFRLAQAGARQGHLVIRGQGGEDREALTLEDVADKLQKLYRLPPMPALALRILRLTANTEATAKELAELIEFDPSMTAQIMRYARSALFNYPGQINSVQEAVTRVLGFDRVAHIALGIASVRAFDVPRGGMLGMDNFWRHSLYCAFLCQNLAAYSGRDKGLAYLCGLLHNFGLLLVGHLFPSEFEELNALREINPEASMHSLEQEVFGHSERQDILAVGHGAIGGILHRLWQLPEAVIKAAGMHQHIGYHGEHEEYVQMVQLANAILKERGIGDELNPDDLPALVESLGLRADVLERVQSDMDQVASDLDVLASSLAS	not soluble
MRYLLSLSVFLIVSLNPAFAEWTGDNVEGMHSGMIINKFHSGQVDGKPYFCIEAFKPSTTITACSVKDTSIWGASYNTLYDQAMYYYTTGKRIRVYYAPDVWTNNSFVRALTANALVGFSTCISESSCFGPDRKKHKFTVH	not soluble
SDRPLSVHLNLGQKGNRKTSCPIKINQFEGHFMKLQADSNYLLSKEYEELKDVGRNQSCDIALLPENRGKNRYNNILPYDATRVKLSNVDDDPCSDYINASYIPGNNFRREYIVTQGPLPGTKDDFWKMVWEQNVHNIVMVTQCVEKGRVKCDHYWPADQDSLYYGDLILQMLSESVLPEWTIREFKICGEEQLDAHRLIRHFHYTVWPDHGVPETTQSLIQFVRTVRDYINRSPGAGPTVVHCSAGVGRTGTFIALDRILQQLDSKDSVDIYGAVHDLRLHRVHMVQTECQYVYLHQCVRDVLRARKLRSEQ	soluble
KEELESIINSSPVIVFLWKYEEGWPIEFVSENVTRLGYEVEDFTSRKILYGNIVYPGDLEKVERELARNIEFGCEDYSSEYRILTKSGEVRWVDERTFIQRDEKGEIRLQGIILDIT	not soluble
MRYPEHADPVITLTAGPVNAYPEVLRGLGRTVLYDYDPAFQLLYEKVVDKAQKAMRLSNKPVILHGEPVLGLEAAAASLISPDDVVLNLASGVYGKGFGYWAKRYSPHLLEIEVPYNEAIDPQAVADMLKAHPEITVVSVCHHDTPSGTINPIDAIGALVSAHGAYLIVDAVSSFGGMKTHPEDCKADIYVTGPNKCLGAPPGLTMMGVSERAWAKMKANPLAPRASMLSIVDWENAWSRDKPFPFTPSVSEINGLDVALDLYLNEGPEAVWARHALTAKAMRAGVTAMGLSVWAASDSIASPTTTAVRTPDGVDEKALRQAARARYGVVFSSGRGETLGKLTRIGHMGPTAQPIYAIAALTALGGAMNAAGRKLAIGKGIEAALAVIDADA	soluble
MTVKAVFFDIDGTLLNDRKNIQKTTQKAIQQLKKQGIMVGLATGRGPGFVQPFLENFGLDFAVTYNGQYILTRDKVLYQNQLPKSMIYKVIRYANEKKREISLGTASGLAGSRIIDMGTSPFGQVISSFVPKSWARTVEGSFKHLIRRIKPQSFRNLVTIMREPIYQVVLVASQAETKKIQEKFPHIKITRSSPYSLDLISVDQSKIKGIERLGEMFGFDLSEVMAFGDSDNDLEMLSGVGIGIAMGNAETVVKDGAHFTTDSNNNDGISKALAHYGLIH	not soluble
MSLNSAIKDIEIIEMGEKLRETSSPWSSTILLVKLTSADGLVGYGEAPTTLMTLPVLESMKEVARVFKGKDFFNVEQNVFDFYRNSFYLPVSMEATSALSAFEIASWDLIGKELGTPVYKLIGGEVNHNIRAYANGWYNDCVTPDDFVKKAKEVVKMGFTAMKFDPFGDNYDTITNEGIENARNIVGALRSEFGEKVDLLIEYHGRFSKIAAIKAGMALEEFKPYFYEEPLHPDLDHDLLDLKQYYKVPIALGERVLNKKIFARFISQKLVDIIQPDLTNSGGILEAKKIAAIADGFGIPIAPHNAFGPIQTAATLNVDTTLTNFAIQESFEMFWPDWKKNLMASGYKLENGYFRLTGDAGIGKVNESIVEKYQVSGMEPFDDKEPPWVVSGTFKHYQQKEGHHHHHH	not soluble
MGSDKIHHHHHHMMIQYPKLTISDRLNQHRERLPLADLQETFKESWTVNEKWQVTFAITDSLAYEQAIKLLDVQNIVHYDGQSYVIIQCTKTVSGGVSVYEVTASHLFYRLANNARQNNVKTGTLTYGLSEAVNFMLDNNDQGLTAKFIGDFPRIKIENLGNSSFNKFLQDYTSKFDASYVIDNQQIIFYSATYLKHQPVIDTLFYQHDVENVKLSLDTTSLANEVRCLGKPIDKSSGNNDSQTKYQVDFTYRDDASIQKWGLQRGDPLSDERFTDQGSMTEYARQTVQAQPIATLTTTAWNVTIKQCETVKLVMPNLDWQTTVALNGYERNPFNQFSLPTITFDNASLAVNDINVAMFKHITNAHNHVGKTMVQLMAALGDIQNGDLITDEDTIDKLNELGGIS	not soluble
DQQLVDQLSQLKLNVKMLDNRAGENGVDCAALGADWASCNRVLFTLSNDGQAIDGKDWVIYFHSPRQTLRVDNDQFKIAHLTGDLYKLEPTAKFSGFPAGKAVEIPVVAEYWQLFRNDFLPRWYATSGDAKPKMLANTDTENLDQFVAPFTGDQWKRTKDDKNILMTPASRFVSNADLQTLPAGALRGKIVPTPMQVKVHAQDADLRKGVALDLSTLVKPAADVVSQRFALLGVPVQTNGYPIKTDIQPGKFKGAMAVSGAYELKIGKKEAQVIGFDQAGVFYGLQSILSLVPSDGSGKIATLDASDAPRFPYRGIFLDVARNFHKKDAVLRLLDQMAAYKLNKFHFHLSDDEGWRIEIPGLPELTEVGGQRCHDLSETTCLLPQYGQGPDVYGGFFSRQDYIDIIKYAQARQIEVIPEIDMPAHARAAVVSMEARYKKLHAAGKEQEANEFRLVDQTDTSNTTSVQFFNRQSYLNPCLDSSQRFVDKVIGEIAQMHKEAGQPIKTWHFGGDDAKNIRLGAGYTDKAKPEPGKGIIDQSNEDKPWAKSQVCQTMIKEGKVADMEHLPSYFGQEVSKLVKAHGIDRMQAWQDGLKDAESSKAFATSRVGVNFWDTLYWGGFDSVNDWANKGYEVVVSNPDYVYMDFPYEVNPDERGYYWGTRFSDERKVFSFAPDNMPQNAETSVDRDGNHFNAKSDKPWPGAYGLSAQLWSETQRTDPQMEYMIFPRALSVAERSWHRAGWEQDYRAGREYKGGETHFVDTQALEKDWLRFANILGQRELAKLDKGGVAYRLPVPGARVAGGKLEANIALPGLGIEYSTDGGKQWQRYDAKAKPAVSGEVQVRSVSPDGKRYSRAEKV	soluble
MGSDKIHHHHHHGQPSNDKKNVLPDWAFGGFERPQGANPVISPIENTKFYCPMTQDYVAWESNDTFNPAATLHDGKIVVLYRAEDKSGVGIGHRTSRLGYATSSDGIHFKREKTPVFYPDNDTQKKLEWPGGCEDPRIAVTAEGLYVMTYTQWNRHIPRLAIATSRNLKDWTKHGPAFAKAYDGKFFNLGCKSGSILTEVVNGKQVIKKIDGKYFMYWGEEHVFAATSEDLVNWTPYVNTDGSLRKLFSPRDGHFDSQLTECGPPAIYTPKGIVLLYNGKNSASRGDKRYTANVYAAGQALFDANDPTRFITRLDEPFFRPMDSFEKSGQYVDGTVFIEGMVYYKDKWYLYYGCADSKVGMAIYNPKKPAAADPLP	not soluble
MLPDKGWLVEARRVPSPHYDCRPDDEKPSLLVVHNISLPPGEFGGPWIDALFTGTIDPDAHPFFAEIAHLRVSAHCLIRRDGEIVQYVPFDKRAWHAGVSNYQGRERCNDFSIGIELEGTDTLAYTDAQYQQLAAVTRTLIASYPAIADNMTGHCNITPDRKTDPGPAFDWPRFRALVALSSHKEMT	not soluble
MRIAANACPALVLNADFQPLSYFPLSLWSWQEAVKAVFMDRVCVVSEYDRVVHSPSLDLSLPSVISLKEYVPVAKRAAFTRFNVFLRDGFACQYCGIRLPAHDLTFDHVVPRSKGGVTAWNNVVTACGPCNMRKANRTPREAAMPLLQRPAEPSTHRLRNEGRSFPPGYLHESWRDFLYWDVELDPFLEHHHHHH	not soluble
TLTKHEQDILLKELGPHVDTPAHIVETGLGAYHALFTAHPQYISHFSRLEGHTIENVMQSEGIKHYARTLTEAIVHMLKEISNDAEVKKIAAQYGKDHTSRKVTKDEFMSGEPIFTKYFQNLVKDAEGKAAVEKFLKHVFPMMAAEI	soluble
MAGDPMGRQRGAGLGGGHDEREQTLNQMLVEMDGFSGNDGVIVIAATNRPDVLDPALTRPGRFDRQVVVGLPDVKGREQILKVHMRKVSVAQDVDAMTLARGTPGYSGADLANLVNEAALFAARVNKRTVTMLEFEKAKDKINMGPERRTMIMTDKQKESTAYHEAGHAIVGYLVPEHDPVHKVTIIPRGRALGVTFFLPEGDQISISQKQLESKLSTLYAGRLAEDLIYGEENISTGASNDIKVATNIARNMVTQWGFSEKLGPILYTEDEGEVFLGRSMAKAKHMSDETAHSIDEEVRAIVNRNYARAREILIDNMDILHAMKDALVKYETIEEEQIKQLMNREPVTPPSGWGEPKTQQAAYANSTTNDTKPESAVENTDDFNVAAALEHHHHHH	not soluble
